Results reported in patent US20260234242A1 (HAINAN SIMCERE ZAIMING PHARMACEUTICAL, published 2026).

T1: human CDH6 on tumor cells (OVCAR3 cells, PA-1 cells) (human, UniProt P55285 54-790)
T1 sequence: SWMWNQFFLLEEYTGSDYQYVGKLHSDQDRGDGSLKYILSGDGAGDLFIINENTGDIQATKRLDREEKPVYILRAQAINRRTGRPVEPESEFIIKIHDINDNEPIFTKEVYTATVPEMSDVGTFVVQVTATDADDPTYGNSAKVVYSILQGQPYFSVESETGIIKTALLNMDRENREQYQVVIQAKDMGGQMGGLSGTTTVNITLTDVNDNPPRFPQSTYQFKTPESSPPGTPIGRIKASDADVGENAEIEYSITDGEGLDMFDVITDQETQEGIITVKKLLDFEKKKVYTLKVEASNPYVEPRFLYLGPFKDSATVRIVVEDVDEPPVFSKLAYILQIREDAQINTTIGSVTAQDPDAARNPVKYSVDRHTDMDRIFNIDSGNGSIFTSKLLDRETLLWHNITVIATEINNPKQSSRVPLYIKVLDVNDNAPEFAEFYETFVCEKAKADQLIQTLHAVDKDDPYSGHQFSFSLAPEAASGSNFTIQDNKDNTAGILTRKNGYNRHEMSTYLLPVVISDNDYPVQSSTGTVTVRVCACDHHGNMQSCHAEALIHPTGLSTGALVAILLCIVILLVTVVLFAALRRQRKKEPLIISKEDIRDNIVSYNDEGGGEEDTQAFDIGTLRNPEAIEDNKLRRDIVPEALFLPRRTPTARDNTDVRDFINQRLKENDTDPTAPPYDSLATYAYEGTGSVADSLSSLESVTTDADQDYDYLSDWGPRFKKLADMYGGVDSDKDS

T2: human CDH6 with EC1 removed, on HEK293T cells (HEK293T-hCDH6-EC1 deletion) (human, UniProt P55285 160-790)
T2 construct: Signal peptide not removed here
T2 sequence: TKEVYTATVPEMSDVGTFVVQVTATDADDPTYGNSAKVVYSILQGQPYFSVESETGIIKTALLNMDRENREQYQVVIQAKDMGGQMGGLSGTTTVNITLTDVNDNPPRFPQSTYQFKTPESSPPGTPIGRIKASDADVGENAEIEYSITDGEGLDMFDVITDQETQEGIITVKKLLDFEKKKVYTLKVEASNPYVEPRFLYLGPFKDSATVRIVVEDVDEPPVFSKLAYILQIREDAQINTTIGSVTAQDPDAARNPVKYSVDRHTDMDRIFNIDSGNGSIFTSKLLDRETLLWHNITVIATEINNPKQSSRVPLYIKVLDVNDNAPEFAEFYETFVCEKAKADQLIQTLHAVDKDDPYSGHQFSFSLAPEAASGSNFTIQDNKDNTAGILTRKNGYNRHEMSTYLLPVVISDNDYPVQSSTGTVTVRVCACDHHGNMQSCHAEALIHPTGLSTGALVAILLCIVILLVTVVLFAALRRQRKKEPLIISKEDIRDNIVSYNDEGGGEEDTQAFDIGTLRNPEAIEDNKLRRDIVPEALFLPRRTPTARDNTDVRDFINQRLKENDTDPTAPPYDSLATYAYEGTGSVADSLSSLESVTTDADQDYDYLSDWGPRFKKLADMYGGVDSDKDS

T3: human CDH6 with EC3 removed, on HEK293T cells (HEK293T-hCDH6-EC3 deletion) (human, UniProt P55285 54-790)
T3 construct: Signal peptide not removed here
T3 sequence: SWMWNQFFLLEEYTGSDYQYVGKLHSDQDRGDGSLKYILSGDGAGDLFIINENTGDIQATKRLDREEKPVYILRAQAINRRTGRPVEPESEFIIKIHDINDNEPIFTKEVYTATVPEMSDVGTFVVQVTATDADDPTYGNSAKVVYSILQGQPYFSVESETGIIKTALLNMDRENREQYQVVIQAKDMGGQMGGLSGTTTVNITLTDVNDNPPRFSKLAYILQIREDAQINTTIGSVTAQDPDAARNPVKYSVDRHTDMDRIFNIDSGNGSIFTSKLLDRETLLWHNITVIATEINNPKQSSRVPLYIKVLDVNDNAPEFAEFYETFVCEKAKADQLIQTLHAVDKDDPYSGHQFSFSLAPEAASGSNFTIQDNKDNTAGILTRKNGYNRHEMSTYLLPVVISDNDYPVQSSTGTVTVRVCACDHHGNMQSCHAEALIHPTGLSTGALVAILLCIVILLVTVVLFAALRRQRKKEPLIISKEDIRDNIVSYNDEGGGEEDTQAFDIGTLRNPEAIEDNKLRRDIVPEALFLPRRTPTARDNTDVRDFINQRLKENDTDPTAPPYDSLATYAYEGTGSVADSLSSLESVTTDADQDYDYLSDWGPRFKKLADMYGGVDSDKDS

B1: CHI-CDH6-5 (antibody, human IgG1, kappa, V domains shown)
VH: QVQLQQSGAELVRPGTSVKMSCKAAEYTFTNYWIGWVKQRPGHGLEWIGDLYPGGDHANYNEKFEGKATLTADTSSSTAYMQLSSLTSEDSAIYYCARGMLTTGFDSWGQGTTLTVSS
VL: DIVMSQSPSSLAVSAGEKVTMSCKSSQSLFNSRTRKNYLAWYQQKPGQSPKLLIYWASTRESGVPDRFTGSGSGTDFTLTISSVQAEDLAVYYCKQSYYLRTFGGGTKLEIKR
notes: also called CH1-CDH6-5; chimeric antibody of murine CDH6-5
B2: CHI-CDH6-4 (antibody, human IgG1, kappa, V domains shown)
VH: QVQLQQSGPELVKPGASVKISCKASGYAFSNFWMNWVKQRPGKGLEWIGWIYPGDGDTNYNGKFKDKATLTADKSSSTAYIQLSSLTSEDSAVYFCARLYDAWGFFDYWGQGTTLTVSS
VL: QIVLTQSPAIMSASPGQKVTITCSASSSVNYMHWYQQKLGSSPKLWIYDKSKLAPGVPARFSGSGSGTSYSLTISSMEAEDAASYFCHQWSSYPPMTFGGGTKLEIKR
notes: also called CH1-CDH6-4; chimeric antibody of murine CDH6-4
B3: CHI-CDH6-12 (antibody, human IgG1, kappa, V domains shown)
VH: EVNLVESGGGLVQPGDSLTLSCSASGFTFTDYYMSWVRQFPGKALEWLALIRNKANSYTTEYSASVKGRFTISRDNSQSILYLQMNALRAEDSATYYCARDSYYSHDGFAYWGQGTLVTVSA
VL: DIVLTQSPASLAVSLGQRATISCRASKSVSTSSYTYMHWYQQKPGQPPKLLIKFASYLESGVPARFSGSGSGTDFTLNIHPVEEEDAATYYCQHSREFPFTFGTGTKLEIKR
notes: also called CH1-CDH6-12; chimeric antibody of murine CDH6-12
B4: CHI-CDH6-14 (antibody, human IgG1, kappa, V domains shown)
VH: QIQLQQSGPELVKPGTSVKISCKASGYTFTDNYINWVRQRPGQGLEWIGWIYPGTGNSYYNEKFKGKATLTVDTSSSTAYMQFSSLTSEDSAVYLCASSYGDSFDYWGQGTTLTVSS
VL: DIQMTQTTSSLSASLGNRVTISCRASQDIRNYLNWYQQKPDGTFKLLISYTSRLHSGVPSRFSGSGSGTDYSLTVSNLEPEDIATYYCQQYSQLPWTFGGGSRLEIKR
notes: also called CHI-hCDH6-14; CH1-CDH6-14
B5: DS-H01L02 (antibody, human IgG1, kappa, V domains shown)
VH: EVQLVQSGAEVKKPGASVKVSCKASGYTFTRNFMHWVRQAPGQGLEWMGWIYPGDGETEYAQKFQGRVTITADTSTSTAYMELSSLRSEDTAVYYCARGVYGGFAGGYFDFWGQGTLVTVSS
VL: DIQMTQSPSSLSASVGDRVTITCKASQNIYKNLAWYQQKPGKAPKLLIYDANTLQTGVPSRFSGSGSGSDFTLTISSLQPEDFATYFCQQYYSGWAFGQGTKVEIKR
notes: Positive control, variable regions from WO2018212136A1; also called positive control anti-human CDH6 antibody
B6: CHI-CDH6-7 (antibody, human IgG1, kappa, V domains shown)
VH: EVKLVESGGGLVKPGGSLKVSCAASGFTFSDHGMAWVRQAPGKGPEWVAFISNLAYSIYYADTVTGRFTISRENAKNTLYLEMSSLRSEDTAMYYCARVYVKWYFDVWGAGTTVTVSS
VL: DIQMTQSPASLSASVGETVTITCRASENIDSYLAWYQQKQGKSPQLLVFAATLLADGVPSRFSGSGSGTQYSLKINSLQSEDVARYYCQHYYSTPLTFGAGTKLELKR
notes: also called CH1-CDH6-7; chimeric antibody of murine CDH6-7
B7: NOV0712 (antibody, human IgG1, kappa, V domains shown)
VH: QVQLLESGGGLVQPGGSLRLSCAASGFTFSSHGMHWVRQAPGKGLEWVSVISGSGSNTGYADSVKGRFTISRDNSKNTLYLQMNSLRAEDTAVYYCARQWGSYAFDSWGQGTLVTVSS
VL: DIQMTQSPSSLSASVGDRVTITCRASQSISSYLNWYQQKPGKAPKLLIYAVSTLQSGVPSRFSGSGSGTDFTLTISSLQPEDFATYYCQQSGTFPPTTFGQGTKVEIKR
notes: as for B5

The binders below were run against T1, human CDH6 on tumor cells (OVCAR3 …) (assay: FACS, PA-1 cells).
Method: (§1) OVCAR3 cells with high expression of CDH6 and PA-1 cells with moderate expression of CDH6 were used to detect the binding activity of the antibodies to the cells. […] The cells were washed once with PBS, counted, resuspended to 2×10⁶ cells/mL in an FACS buffer (PBS+2% FBS), and then added to a 96-well plate at 50 μL/well. The chimeric antibodies were diluted with FACS buffer (PBS+2% FBS) and added to the 96-well plate at 50 μL/well, and the plate was incubated at 4° C. for 1 h. […] The dilution was added to the 96-well plate at 50 μL/well, and the plate was incubated at 4° C. for 1 h. After the plates were centrifuged and washed 2 times with PBS, the cells were resuspended in an FACS buffer. The mean fluorescence intensity (MFI) was measured using FACS Canton II (BD). Analysis was performed by the GraphPad Prism software, data were fitted, and EC50 values were calculated. The chimeric antibodies tested had strong binding to both OVCAR3 cells and PA-1 cells.

Binder | EC50 | Max MFI
B1 | 0.49 nM | 4560 MFI
B2 | 2.48 nM | 3990 MFI
B3 | 2.27 nM | 3150 MFI
B4 | 0.26 nM | 5410 MFI
B5 | 1.09 nM | 1880 MFI
B6 | 7.57 nM | 2470 MFI
B7 | 1.46 nM | 3600 MFI

These binders were tested against T2, human CDH6 with EC1 removed, on HEK293T … (assay: FACS, HEK293T-hCDH6-EC1 deletion cells).

Binder | Max MFI
B1 | 112 MFI
B2 | 10200 MFI
B3 | 9860 MFI
B4 | 7210 MFI
B5 | 5290 MFI
B6 | 88 MFI
B7 | 23600 MFI

What follows are binders tested against T3, human CDH6 with EC3 removed, on HEK293T … (assay: FACS, HEK293T-hCDH6-EC3 deletion cells).
Text: To confirm the binding epitope of the CDH6 antibody, the sequences after removal of these 5 regions were constructed into pcDNA3.1 vectors (purchased from Youbio, Cat. No. VT1001), and transfected into HEK293T cells (purchased from Cell Bank of Chinese Academy of Sciences, Cat. No. SCSP-502) to obtain 5 CDH6 truncated cell lines: HEK293T-hCDH6-EC1 deletion, HEK293T-hCDH6-EC2 deletion, HEK293T-hCDH6-EC3 deletion, HEK293T-hCDH6-EC4 deletion, and HEK293T-hCDH6-EC5 deletion.
The binding activity of the CDH6 chimeric antibodies to these 5 cell lines was assayed by FACS.

Binder | Max MFI | binding result
B1 | 12200 MFI | –
B2 | 15100 MFI | –
B3 | 70 MFI | –
B4 | 755 MFI | –
B5 | – | no binding (tested: MFI ~1.5 times that of hIgG1 (65))
B6 | 9060 MFI | –
B7 | 16300 MFI | –

What follows are binders tested against T1, human CDH6 on tumor cells (OVCAR3 …) (assay: FACS, OVCAR3 cells).
Method: as §1

Binder | EC50 | Max MFI
B1 | 0.57 nM | 12700 MFI
B2 | 3.17 nM | 14000 MFI
B3 | 2.22 nM | 12500 MFI
B4 | 0.43 nM | 15700 MFI
B5 | 0.8 nM | 9730 MFI
B6 | 5.57 nM | 12000 MFI
B7 | 1.92 nM | 11500 MFI
